In US20250215104A1 (WALDEN BIOSCIENCES, published 2025):
Residue numbers refer to the chain shown, from its start.

B1: suPAR_DB04_E05 (scFv, V domains shown)
VH: QVQLVQSGAEVKKPGASVKVSCKASGFNIKDYYIHWVRQAPGQGLEWVGWIDPHSGGTNYAQKFQGRVTMTRDTSTSTVYMELSSLRSEDTAVYYCARGYDVDWFVYWGQGTLVTVSS
VL: DIQMTQSPSSLSASVGDRVTITCSARSSVSYMYWYQQKPGKAPKLLIYRTSNLASGVPSRFSGSGSGTDFTLTISSLQPEDFATYYCQQYHSYPPTFGGGTKVEIK
notes: scFv clone from phage display
B2: suPAR_DB04_G11 (scFv, V domains shown)
VH: B1 VH with N28T, I29F, V48M, H54D
VL: B1 VL with S27Q
notes: scFv clone from phage display
B3: suPAR_DB04_G07 (scFv, V domains shown)
VH: B1 VH with N28S, I29F, K30T, D31T, I34M, V48M, H54E, S55N, G57N, N59I
VL: B1 VL
notes: scFv clone from phage display
B4: suPAR_DB04_G03 (scFv, V domains shown)
VH: QVQLVQSGAEVKKPGASVKVSCKASGYTFTGYYMHWVRQAPGQGLEWMGWIDHENGNTIYDQKFQGRVTMTRDTSTSTVYMELSSLRSEDTAVYYCARGYDVDWFVYWGQGTLVTVSS
VL: B1 VL with R26S, A54Q
notes: scFv clone from phage display
B5: suPAR_DB04_G06 (scFv, V domains shown)
VH: B4 VH with Y27D, G31S, M34V
VL: B1 VL with R26S, S27Q
notes: scFv clone from phage display
B6: suPAR_DB04_G10 (scFv, V domains shown)
VH: B4 VH with Y100N
VL: B1 VL with S24R, R26S
notes: scFv clone from phage display
B7: suPAR_DB04_G08 (scFv, V domains shown)
VH: B4 VH with Y27H, F29L, M34V
VL: B1 VL
notes: scFv clone from phage display
B8: suPAR_DB04_G05 (scFv, V domains shown)
VH: B4 VH with T28N, F29I, G31D, M34I, H53P, N57S
VL: B1 VL with A54Q
notes: scFv clone from phage display
B9: suPAR_DB04_G12 (scFv, V domains shown)
VH: B4 VH with T30S, G31D, I59S, D61A
VL: B1 VL
notes: scFv clone from phage display
B10: suPAR_DB04_G09 (scFv, V domains shown)
VH: B4 VH with Y27D, F29S, G31T
VL: B1 VL with R26K
notes: scFv clone from phage display
B11: suPAR_DB04_G02 (scFv, V domains shown)
VH: B4 VH with G31N
VL: B1 VL with N52S
notes: scFv clone from phage display
B12: suPAR_DB04_H01 (scFv, V domains shown)
VH: B4 VH with T30I, Y32S, M34V
VL: B1 VL with N52S
notes: scFv clone from phage display
B13: suPAR_DB04_G04 (scFv, V domains shown)
VH: B4 VH with T28S, G31S, M34I, N57S, D61A
VL: B1 VL with R26S, S27Q
notes: scFv clone from phage display
B14: suPAR_DB04_F11 (scFv, V domains shown)
VH: B4 VH with G31S, Y32H, N55G, I59S, D61A
VL: B1 VL
notes: scFv clone from phage display
B15: suPAR_DB01_F03 (scFv, V domains shown)
VH: B4 VH with G31S
VL: B1 VL with S27Q
notes: Screened as scFv
B16: suPAR_DB01_F05 (scFv, V domains shown)
VH: B4 VH with T30S, G31N, N55G, N57S
VL: B1 VL
notes: Screened as scFv
B17: suPAR_DB01_G02 (scFv, V domains shown)
VH: B4 VH with T28S, G31D, D61A
VL: B1 VL
notes: Screened as scFv
B18: suPAR_DB01_G01 (scFv, V domains shown)
VH: B4 VH with Y27D, T30S, G31S
VL: B1 VL
notes: Screened as scFv
B19: suPAR_DB01_F10 (scFv, V domains shown)
VH: B4 VH with G31S, N57S, I59S
VL: B1 VL
notes: Screened as scFv
B20: suPAR_DB01_F02 (scFv, V domains shown)
VH: B4 VH with G31N, M34V
VL: B1 VL
notes: Screened as scFv
B21: suPAR_DB01_G07 (scFv, V domains shown)
VH: B4 VH with Y27N, G31S, H53P
VL: B1 VL
notes: Screened as scFv
B22: suPAR_DB01_F04 (scFv, V domains shown)
VH: B4 VH with G31D, E54S, D61A
VL: B1 VL
notes: Screened as scFv
B23: suPAR_DB01_F11 (scFv, V domains shown)
VH: B4 VH with G31S, N55G, I59S, D61A
VL: B1 VL with S24R, R26S
notes: Screened as scFv
B24: suPAR_DB01_G04 (scFv, V domains shown)
VH: B4 VH with F29L, T30S, H53P, E54N, N55S, N57G, I59K, D61A
VL: B1 VL with S24R, S27Q
notes: Screened as scFv
B25: suPAR_DB01_F06 (scFv, V domains shown)
VH: B4 VH with G31S, D61A
VL: B1 VL with S27Q, V29I, A54Q
notes: Screened as scFv
B26: suPAR_DB01_G08 (scFv, V domains shown)
VH: B4 VH with T28S, G31N, I59S, D61A
VL: B1 VL with S27Q, N52S
notes: Screened as scFv
B27: suPAR_DB01_F12 (scFv, V domains shown)
VH: B1 VH with V48M, H54E, S55N, G57S, N59I, A61D
VL: B1 VL with S24R, S27Q
notes: Screened as scFv
B28: suPAR_DB01_F08 (scFv, V domains shown)
VH: B4 VH with N57S, D61A
VL: B1 VL with S24R, S27Q
notes: Screened as scFv

These binders were tested against T1, cynomolgus soluble urokinase plasminogen activator receptor (cynomolgus suPAR) (cynomolgus, UniProt Q9GK78 23-303, limits assumed) (assay: off-rate screen of scFv clones (kdis), Octet BLI).
T1 construct: also called cynomolgus uPAR; cynoPLAUR-His
Target sequence in this assay (Q9GK78 23-303 limits assumed): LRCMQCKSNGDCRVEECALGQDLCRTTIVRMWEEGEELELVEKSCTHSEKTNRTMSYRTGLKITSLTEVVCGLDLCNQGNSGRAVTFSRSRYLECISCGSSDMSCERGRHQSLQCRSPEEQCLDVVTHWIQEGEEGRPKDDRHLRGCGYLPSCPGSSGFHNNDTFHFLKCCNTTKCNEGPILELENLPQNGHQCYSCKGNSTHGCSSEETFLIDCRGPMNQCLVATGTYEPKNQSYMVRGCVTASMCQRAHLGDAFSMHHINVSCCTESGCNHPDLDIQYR
In the case of B1, the koff is reported as 3.92e-07 s⁻¹. Binder B2 has a koff of 0.00021 s⁻¹. Work on B3 yielded a koff of 5.96e-07 s⁻¹. B4 gave a koff of 0.000747 s⁻¹. B5 showed a koff of 0.000208 s⁻¹. B6 showed a koff of 0.000462 s⁻¹. In the case of B7, the koff is reported as 0.000203 s⁻¹. For B8, the koff was 8.25e-05 s⁻¹. For B9, the koff was 8.1e-05 s⁻¹. B10 showed a koff of 0.000647 s⁻¹. B11 showed a koff of 0.000388 s⁻¹. B12 was tested, and the koff was 0.00104 s⁻¹. B13 gave a koff of 0.000342 s⁻¹. B14 was tested, and the koff was 0.000121 s⁻¹.

Each binder was assayed against T2, human soluble urokinase plasminogen activator receptor (hsuPAR) (human, UniProt Q03405 23-303, limits assumed) (assay: off-rate screen of scFv clones (kdis), Octet BLI).
T2 construct: also called human suPAR; rhuPAR-His
T2 sequence (Q03405 23-303 limits assumed): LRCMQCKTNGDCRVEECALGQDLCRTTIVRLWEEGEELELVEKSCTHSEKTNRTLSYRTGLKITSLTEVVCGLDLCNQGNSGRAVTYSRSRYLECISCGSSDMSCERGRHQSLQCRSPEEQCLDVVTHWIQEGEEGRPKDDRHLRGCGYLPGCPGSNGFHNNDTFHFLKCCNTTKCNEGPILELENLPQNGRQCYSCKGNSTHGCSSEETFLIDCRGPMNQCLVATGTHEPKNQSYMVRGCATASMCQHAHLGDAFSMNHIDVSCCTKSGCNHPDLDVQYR
With B1 the koff was 0.00359 s⁻¹. B2 was tested, and the koff was 0.00327 s⁻¹. For B3, the koff was 0.00424 s⁻¹. Work on B4 yielded a koff of 0.00119 s⁻¹. Binder B5 has a koff of 0.0027 s⁻¹. For B6, the koff was 0.00322 s⁻¹. Work on B7 yielded a koff of 0.00317 s⁻¹. B8 gave a koff of 0.00364 s⁻¹. In the case of B9, the koff is reported as 0.00528 s⁻¹. B10 was tested, and the koff was 0.00359 s⁻¹. B11 was tested, and the koff was 0.00185 s⁻¹. Work on B12 yielded a koff of 0.00127 s⁻¹. B13 was tested, and the koff was 0.000751 s⁻¹. Binder B14 has a koff of 0.0051 s⁻¹.

The binders below were run against T3, human soluble urokinase plasminogen activator receptor (hsuPAR) (human, UniProt Q03405 23-303, limits assumed) (assay: BLI (Octet) off-rate screen of scFv).
T3 construct: also called human suPAR; rhuPAR-His
T3 sequence (Q03405 23-303 limits assumed): as above
B15 gave a koff of 0.00251 s⁻¹. Work on B16 yielded a koff of 0.00175 s⁻¹. B17 was tested, and the koff was 0.00245 s⁻¹. B18 was tested, and the koff was 0.00429 s⁻¹. Binder B19 has a koff of 0.00183 s⁻¹. With B20 the koff was 0.004 s⁻¹. With B21 the koff was 0.00407 s⁻¹. Binder B22 has a koff of 0.00309 s⁻¹. For B23, the koff was 0.00293 s⁻¹. Binder B24 has a koff of 0.00364 s⁻¹. Binder B25 has a koff of 0.00267 s⁻¹. In the case of B26, the koff is reported as 0.00309 s⁻¹. For B27, the koff was 0.00282 s⁻¹. With B28 the koff was 0.000505 s⁻¹.

The binders below were run against T4, cynomolgus soluble urokinase plasminogen activator receptor (cynomolgus suPAR) (cynomolgus, UniProt Q9GK78 23-303, limits assumed) (assay: BLI (Octet) off-rate screen of scFv).
T4 construct: also called cynomolgus uPAR; cynoPLAUR-His
Target sequence in this assay (Q9GK78 23-303 limits assumed): as the sequence (Q9GK78 23-303 limits assumed) above
Work on B15 yielded a koff of 6.17e-07 s⁻¹. Binder B16 has a koff of 4.95e-07 s⁻¹. In the case of B17, the koff is reported as 0.000149 s⁻¹. With B18 the koff was 0.000152 s⁻¹. B19 gave a koff of 3.88e-05 s⁻¹. For B20, the koff was 9.84e-05 s⁻¹. B21 was tested, and the koff was 1.73e-05 s⁻¹. In the case of B22, the koff is reported as 4.59e-05 s⁻¹. In the case of B23, the koff is reported as 9.02e-05 s⁻¹. Work on B24 yielded a koff of 7.99e-05 s⁻¹. B25 showed a koff of 4.98e-05 s⁻¹. Binder B26 has a koff of 0.000104 s⁻¹. B27 showed a koff of 0.000192 s⁻¹. B28 was tested, and the koff was 0.000207 s⁻¹.
